Measurements reported in US8703460B2, “Method for the production of an additive for the enzymatic decomposition of mycotoxins, additive, and use thereof” (Erber Aktiengesellschaft, priority 2008, dated 2014).

Columns and labels:
piglets = assay: Feeding test with piglets; assay type: in vivo, pigs; conditions: Positive control: 4-5.5 ppm fumonisin B1 in feed, no enzyme
Description: The test was performed in a test stable with 12 stalls for 10 animals each. The stable was equipped with a slatted floor, pan troughs and a computer-controlled feeding system. The automats were arranged along the stall walls. Every day, the stable climate was automatically recorded, and the temperature was set according to the standard recommendations for piglet breeding.
For this test, 120 mixed-sex weaned pigs (age: about 4 weeks, average setting weight: 8.21 kg) were used. Each piglet was earmarked and individually weighed. The 120 piglets were randomly distributed among 12 stalls. All piglets came from the Austrian Breeding Program ÖHYB (=(large white×landrace)×Pietrain).
Immediately upon weaning, the piglets were fed with a starter feed for two days, after this settling-in period the changeover to the test feed took place. Feeding was effected in two phases: Weaning phase days 1-14, breeding phase days 15-42. The test feed was mixed individually per stall via the spotmix feeding installation and allotted in dry form twice a day as a function of the number of piglets, weight development and feed consumption. Water was available ad libitum. The 12 stalls were divided into four different application groups at three repetitions each and received the following admixtures in the above-described feed: […]

[1] = Catalytic activity of HFB1 aminotransferase in E. coli lysate; assay type: biochemical; conditions: 25° C.; for degradation of the hydrolyzed fumonisin to 2-keto-HFB1: cosubstrate added (α-keto acid e.g. pyruvic acid, or oxalacetate); for reduction of the hydrolyzed FB1 concentration: no cosubstrate, 50 mM sodium phosphate buffer
Description: Sequences ID Nos. 18 and 24 were cloned using standard procedures and expressed in E. coli under the control of a bacteriophage T7 promoter. The bacterial cells were collected, resuspended in 50 mM sodium phosphate buffer and lyzed under ultrasonic action. Hydrolyzed fumonisin was added, and the samples were incubated at 25° C. Samples were taken at time intervals and analyzed by HPLC-MS/MS. No reduction of the hydrolyzed FB1 concentration was observed. […] This substance is totally harmless for mammals.

[2] = assay type: biochemical; conditions: corn mash after carboxylesterase treatment; FIG. 5
Description: Samples of corn mash for the production of bioethanol were taken and incubated at 30 to 65° C. under stirring, the degradation of fumonisin B1 having been investigated after the addition of 770 units of carboxylesterase ID No. 9 per cubic meter of mash under stirring (stirring time in minutes). Samples were inactivated by boiling-up after having been taken and subsequently centrifuged for analysis, and an aliquot of the supernatant was evaporated. The residue was taken up in 200 μl sample buffer containing C^13-labelled internal fumonisin standard, shaken for 1.5 min, centrifuged off, and then subjected to LC-MS-analysis.

Row | Molecule | respiratory problems observed (piglets) | Final weight (average, kg) (piglets; 42 days) [kg] | degradation of the hydrolyzed fumonisin to 2-keto-HFB1 [1] | reduction of the hydrolyzed FB1 concentration [1] | degradation of hydrolyzed fumonisin HFB1 [2]
1 | CCCC[C@@H](C)[C@@H](OC(=O)C[C@@H](CC(=O)O)C(=O)O)[C@H](C[C@@H](C)C[C@H](O)CCCC[C@@H](O)C[C@H](O)[C@H](C)N)OC(=O)C[C@@H](CC(=O)O)C(=O)O [fumonisin B1] | almost half of the animals | 24.77 |  |  | 
2 | aminotransferase ID No. 19: HFB1 aminotransferase encoded by fumI (sequence ID No. 18) (protein, listed as Sphingopyxis sp., Seq ID 19 (FumI)) MANGTRQKDLRERAERVIPGGMYGHESTRLLPPEFPQFFRRALGARIWDADEQPYIDYMCAYGPNLLGYRQSEIEAAADAQRLLGDTMTGPSEIMVNLAEAFVGMVRHADWAMFCKNGSDATSTAMVLARAHTGRKTILCAKGAYHGASPWNTPHTAGILASDRVHVAYYTYNDAQSLSDAFKAHDGDIAAVFATPFRHEVFEDQALAQLEFARTARKCCDETGALLVVDDVRAGFRVARDCSWTHLGIEPDLSCWGKCFANGYPISALLGSNKARDAARDIFVTGSFWFSAVPMAAAIETLRIIRETPYLETLIASGAALRAGLEAQSQRHGLELKQTGPAQMPQIFFADDPDFRIGYAWAAACLKGGVYVHPYHNMFLSAAHTVDDVTETLEATDRAFSAVLRDFASLQPHPILMQLAGA |  |  | complete degradation | No reduction | completely degraded
3 | aminotransferase ID No. 25: HFB1 aminotransferase encoded by sequence ID No. 24 (protein, listed as Caulobacter sp., Seq ID 25) MELSRQRDQALRERAQAVIPGGMYGHESTYLMPEGTPQFFSRGKGARLWDADGNEYVDYMCAYGPNLLGYGFEPVEAAAAAQQARGDTLTGPSEVMVQLAEDFVAQISHADWAMFCKNGTDATSMAMVIARAHTGRKTILCAKGAYHGAAPWCTPILAGTLPEDRAFVVYYDYNDAQSLVDAFEAHQDDVAAIFATPHRHEVFSDQIDPDPEYAASVRALCDKSGALLVVDEVRAGFRIARDCSWAKIGVAPDLSTWGKCFANGYPISAVLGGEKVRSAAKAVYVTGSFWFSATPMAAAVETLKQIRETDYLERINAAGTRLREGLQQQAAHNGFTLRQTGPVSMPQVLFEEDPDFRVGYGWVRECLKRGVYFSPYHNMFLSAAHSEADLAKTLAATGDAFVELRAKLPSLEIHQPLLALRAA |  |  | complete degradation | No reduction | 
